The record followed here is article PMC8420576 (2021).

A word on the koff: it is the rate constant with which the complex falls apart. The Kd is the free concentration of one partner at which half of the binding sites on the other are occupied at equilibrium, for simple one-to-one binding.

Holding throughout (assay): BLI
For orientation: BLI is a label-free optical method that tracks binding on a fibre tip over time.

Test [1] addresses T1, SARS-CoV-2 RBD wt (GenScript Z03479) (SARS-CoV-2, UniProt P0DTC2 319-541).
Test [2] addresses T1, SARS-CoV-2 RBD wt (GenScript Z03479). This is another data set of the same source.
The target in test [3] is T2, SARS-CoV-2 Spike RBD (residues 334–527), C-terminal Avi-His6 tag, biotinylated (SARS-CoV-2, UniProt P0DTC2 334-527, biotin on the Avi-tag).
Test [4] has as its target T2, SARS-CoV-2 Spike RBD (residues …). The source holds these as a separate data set.

B1: VHH antibody Re5D06, labeled with two PEG11-biotins (VHH)
VHH: QVQLVESGGGLVQPGGSLRLSCAASGITLDYYAIGWFRQAPGKEREGVSRIRSSDGSTNYADSVKGRFTMSRDNAKNTVYLQMNSLKPEDTAVYYCAYGPLTKYGSSWYWPYEYDYWGQGTQVTVSS
Consider B1, for which, in test [1], the koff is 1.6e-06 s⁻¹. The same molecule had a Kd in test [2] of less than 0.01 nM.

B2: VHH antibody Re9F06 (VHH)
VHH: QVQLVESGGGLVQAGGSLRLSCAASGRTFSNDALGWFRQAPRKEREFVAAINWNSGTYYADSVKGRFTISRDNAKNTVYLQMNSLKPEDTAVYSCAAASDYGLPREDFLYDYWGQGTQVTVSS
B2 returned a koff in test [3] of 0.00045 s⁻¹. Further, the Kd in test [4] was found to be 270 nM.
